# Experimental data published in patent publication US20220040297A1 (Chugai, published 2022).
# B1: CE115HA000 W33Y (antibody, name in Kabat numbering, V domains shown)
# VH: QVQLVESGGGVVQPGRSLRLSCAASGFTFSNAYMHWVRQAPGKGLEWVAQIKAKSNNYATYYAESVKGRFTISRDDSKNSLYLQMNSLKTEDTAVYYCRYVHYGAYYGVDAWGQGTTVTVSS
# VL: DIVMTQSPLSLPVTPGEPASISCRSSQSLVHSNRNTYLHWYQQKPGQAPRLLIYKVSNRFSGVPDRFSGSGSGTDFTLKISRVEAEDVGVYYCGQGTQVPYTFGQGTKLEIK
# B2: CE115HA000 Y58K (antibody, name in Kabat numbering, V domains shown)
# VH: QVQLVESGGGVVQPGRSLRLSCAASGFTFSNAWMHWVRQAPGKGLEWVAQIKAKSNNYATKYAESVKGRFTISRDDSKNSLYLQMNSLKTEDTAVYYCRYVHYGAYYGVDAWGQGTTVTVSS
# VL: DIVMTQSPLSLPVTPGEPASISCRSSQSLVHSNRNTYLHWYQQKPGQAPRLLIYKVSNRFSGVPDRFSGSGSGTDFTLKISRVEAEDVGVYYCGQGTQVPYTFGQGTKLEIK
# B3: CE115HA000 Y100P (antibody, name in Kabat numbering, V domains shown)
# VH: QVQLVESGGGVVQPGRSLRLSCAASGFTFSNAWMHWVRQAPGKGLEWVAQIKAKSNNYATYYAESVKGRFTISRDDSKNSLYLQMNSLKTEDTAVYYCRYVHYGAPYGVDAWGQGTTVTVSS
# VL: DIVMTQSPLSLPVTPGEPASISCRSSQSLVHSNRNTYLHWYQQKPGQAPRLLIYKVSNRFSGVPDRFSGSGSGTDFTLKISRVEAEDVGVYYCGQGTQVPYTFGQGTKLEIK
# B4: CE115HA000 Y100D (antibody, name in Kabat numbering, V domains shown)
# VH: QVQLVESGGGVVQPGRSLRLSCAASGFTFSNAWMHWVRQAPGKGLEWVAQIKAKSNNYATYYAESVKGRFTISRDDSKNSLYLQMNSLKTEDTAVYYCRYVHYGADYGVDAWGQGTTVTVSS
# VL: DIVMTQSPLSLPVTPGEPASISCRSSQSLVHSNRNTYLHWYQQKPGQAPRLLIYKVSNRFSGVPDRFSGSGSGTDFTLKISRVEAEDVGVYYCGQGTQVPYTFGQGTKLEIK
# B5: CE115HA000 Y58A (antibody, name in Kabat numbering, V domains shown)
# VH: QVQLVESGGGVVQPGRSLRLSCAASGFTFSNAWMHWVRQAPGKGLEWVAQIKAKSNNYATAYAESVKGRFTISRDDSKNSLYLQMNSLKTEDTAVYYCRYVHYGAYYGVDAWGQGTTVTVSS
# VL: DIVMTQSPLSLPVTPGEPASISCRSSQSLVHSNRNTYLHWYQQKPGQAPRLLIYKVSNRFSGVPDRFSGSGSGTDFTLKISRVEAEDVGVYYCGQGTQVPYTFGQGTKLEIK
# B6: CE115HA000 Y58L (antibody, name in Kabat numbering, V domains shown)
# VH: QVQLVESGGGVVQPGRSLRLSCAASGFTFSNAWMHWVRQAPGKGLEWVAQIKAKSNNYATLYAESVKGRFTISRDDSKNSLYLQMNSLKTEDTAVYYCRYVHYGAYYGVDAWGQGTTVTVSS
# VL: DIVMTQSPLSLPVTPGEPASISCRSSQSLVHSNRNTYLHWYQQKPGQAPRLLIYKVSNRFSGVPDRFSGSGSGTDFTLKISRVEAEDVGVYYCGQGTQVPYTFGQGTKLEIK
# B7: CE115HA000 Y59E (antibody, name in Kabat numbering, V domains shown)
# VH: QVQLVESGGGVVQPGRSLRLSCAASGFTFSNAWMHWVRQAPGKGLEWVAQIKAKSNNYATYEAESVKGRFTISRDDSKNSLYLQMNSLKTEDTAVYYCRYVHYGAYYGVDAWGQGTTVTVSS
# VL: DIVMTQSPLSLPVTPGEPASISCRSSQSLVHSNRNTYLHWYQQKPGQAPRLLIYKVSNRFSGVPDRFSGSGSGTDFTLKISRVEAEDVGVYYCGQGTQVPYTFGQGTKLEIK
# B8: CE115HA000 Y59S (antibody, name in Kabat numbering, V domains shown)
# VH: QVQLVESGGGVVQPGRSLRLSCAASGFTFSNAWMHWVRQAPGKGLEWVAQIKAKSNNYATYSAESVKGRFTISRDDSKNSLYLQMNSLKTEDTAVYYCRYVHYGAYYGVDAWGQGTTVTVSS
# VL: DIVMTQSPLSLPVTPGEPASISCRSSQSLVHSNRNTYLHWYQQKPGQAPRLLIYKVSNRFSGVPDRFSGSGSGTDFTLKISRVEAEDVGVYYCGQGTQVPYTFGQGTKLEIK
# B9: CE115HA000 Y55D (antibody, name in Kabat numbering, V domains shown)
# VH: QVQLVESGGGVVQPGRSLRLSCAASGFTFSNAWMHWVRQAPGKGLEWVAQIKAKSNNDATYYAESVKGRFTISRDDSKNSLYLQMNSLKTEDTAVYYCRYVHYGAYYGVDAWGQGTTVTVSS
# VL: DIVMTQSPLSLPVTPGEPASISCRSSQSLVHSNRNTYLHWYQQKPGQAPRLLIYKVSNRFSGVPDRFSGSGSGTDFTLKISRVEAEDVGVYYCGQGTQVPYTFGQGTKLEIK
# B10: CE115HA000 Y58D (antibody, name in Kabat numbering, V domains shown)
# VH: QVQLVESGGGVVQPGRSLRLSCAASGFTFSNAWMHWVRQAPGKGLEWVAQIKAKSNNYATDYAESVKGRFTISRDDSKNSLYLQMNSLKTEDTAVYYCRYVHYGAYYGVDAWGQGTTVTVSS
# VL: DIVMTQSPLSLPVTPGEPASISCRSSQSLVHSNRNTYLHWYQQKPGQAPRLLIYKVSNRFSGVPDRFSGSGSGTDFTLKISRVEAEDVGVYYCGQGTQVPYTFGQGTKLEIK
# B11: CE115HA000 Y55G (antibody, name in Kabat numbering, V domains shown)
# VH: QVQLVESGGGVVQPGRSLRLSCAASGFTFSNAWMHWVRQAPGKGLEWVAQIKAKSNNGATYYAESVKGRFTISRDDSKNSLYLQMNSLKTEDTAVYYCRYVHYGAYYGVDAWGQGTTVTVSS
# VL: DIVMTQSPLSLPVTPGEPASISCRSSQSLVHSNRNTYLHWYQQKPGQAPRLLIYKVSNRFSGVPDRFSGSGSGTDFTLKISRVEAEDVGVYYCGQGTQVPYTFGQGTKLEIK
# B12: CE115HA000 Y58Q (antibody, name in Kabat numbering, V domains shown)
# VH: QVQLVESGGGVVQPGRSLRLSCAASGFTFSNAWMHWVRQAPGKGLEWVAQIKAKSNNYATQYAESVKGRFTISRDDSKNSLYLQMNSLKTEDTAVYYCRYVHYGAYYGVDAWGQGTTVTVSS
# VL: DIVMTQSPLSLPVTPGEPASISCRSSQSLVHSNRNTYLHWYQQKPGQAPRLLIYKVSNRFSGVPDRFSGSGSGTDFTLKISRVEAEDVGVYYCGQGTQVPYTFGQGTKLEIK
# B13: CE115HA000 Y59A (antibody, name in Kabat numbering, V domains shown)
# VH: QVQLVESGGGVVQPGRSLRLSCAASGFTFSNAWMHWVRQAPGKGLEWVAQIKAKSNNYATYAAESVKGRFTISRDDSKNSLYLQMNSLKTEDTAVYYCRYVHYGAYYGVDAWGQGTTVTVSS
# VL: DIVMTQSPLSLPVTPGEPASISCRSSQSLVHSNRNTYLHWYQQKPGQAPRLLIYKVSNRFSGVPDRFSGSGSGTDFTLKISRVEAEDVGVYYCGQGTQVPYTFGQGTKLEIK
# B14: CE115HA000 Y59D (antibody, name in Kabat numbering, V domains shown)
# VH: QVQLVESGGGVVQPGRSLRLSCAASGFTFSNAWMHWVRQAPGKGLEWVAQIKAKSNNYATYDAESVKGRFTISRDDSKNSLYLQMNSLKTEDTAVYYCRYVHYGAYYGVDAWGQGTTVTVSS
# VL: DIVMTQSPLSLPVTPGEPASISCRSSQSLVHSNRNTYLHWYQQKPGQAPRLLIYKVSNRFSGVPDRFSGSGSGTDFTLKISRVEAEDVGVYYCGQGTQVPYTFGQGTKLEIK
# B15: CE115HA000 Y100A (antibody, name in Kabat numbering, V domains shown)
# VH: QVQLVESGGGVVQPGRSLRLSCAASGFTFSNAWMHWVRQAPGKGLEWVAQIKAKSNNYATYYAESVKGRFTISRDDSKNSLYLQMNSLKTEDTAVYYCRYVHYGAAYGVDAWGQGTTVTVSS
# VL: DIVMTQSPLSLPVTPGEPASISCRSSQSLVHSNRNTYLHWYQQKPGQAPRLLIYKVSNRFSGVPDRFSGSGSGTDFTLKISRVEAEDVGVYYCGQGTQVPYTFGQGTKLEIK
# B16: CE115HA000 Y58N (antibody, name in Kabat numbering, V domains shown)
# VH: QVQLVESGGGVVQPGRSLRLSCAASGFTFSNAWMHWVRQAPGKGLEWVAQIKAKSNNYATNYAESVKGRFTISRDDSKNSLYLQMNSLKTEDTAVYYCRYVHYGAYYGVDAWGQGTTVTVSS
# VL: DIVMTQSPLSLPVTPGEPASISCRSSQSLVHSNRNTYLHWYQQKPGQAPRLLIYKVSNRFSGVPDRFSGSGSGTDFTLKISRVEAEDVGVYYCGQGTQVPYTFGQGTKLEIK
# B17: CE115HA000 Y55S (antibody, name in Kabat numbering, V domains shown)
# VH: QVQLVESGGGVVQPGRSLRLSCAASGFTFSNAWMHWVRQAPGKGLEWVAQIKAKSNNSATYYAESVKGRFTISRDDSKNSLYLQMNSLKTEDTAVYYCRYVHYGAYYGVDAWGQGTTVTVSS
# VL: DIVMTQSPLSLPVTPGEPASISCRSSQSLVHSNRNTYLHWYQQKPGQAPRLLIYKVSNRFSGVPDRFSGSGSGTDFTLKISRVEAEDVGVYYCGQGTQVPYTFGQGTKLEIK
# B18: CE115HA000 Y58S (antibody, name in Kabat numbering, V domains shown)
# VH: QVQLVESGGGVVQPGRSLRLSCAASGFTFSNAWMHWVRQAPGKGLEWVAQIKAKSNNYATSYAESVKGRFTISRDDSKNSLYLQMNSLKTEDTAVYYCRYVHYGAYYGVDAWGQGTTVTVSS
# VL: DIVMTQSPLSLPVTPGEPASISCRSSQSLVHSNRNTYLHWYQQKPGQAPRLLIYKVSNRFSGVPDRFSGSGSGTDFTLKISRVEAEDVGVYYCGQGTQVPYTFGQGTKLEIK
# B19: CE115HA000 Y97P (antibody, name in Kabat numbering, V domains shown)
# VH: QVQLVESGGGVVQPGRSLRLSCAASGFTFSNAWMHWVRQAPGKGLEWVAQIKAKSNNYATYYAESVKGRFTISRDDSKNSLYLQMNSLKTEDTAVYYCRYVHPGAYYGVDAWGQGTTVTVSS
# VL: DIVMTQSPLSLPVTPGEPASISCRSSQSLVHSNRNTYLHWYQQKPGQAPRLLIYKVSNRFSGVPDRFSGSGSGTDFTLKISRVEAEDVGVYYCGQGTQVPYTFGQGTKLEIK
# B20: CE115HA000 Y97D (antibody, name in Kabat numbering, V domains shown)
# VH: QVQLVESGGGVVQPGRSLRLSCAASGFTFSNAWMHWVRQAPGKGLEWVAQIKAKSNNYATYYAESVKGRFTISRDDSKNSLYLQMNSLKTEDTAVYYCRYVHDGAYYGVDAWGQGTTVTVSS
# VL: DIVMTQSPLSLPVTPGEPASISCRSSQSLVHSNRNTYLHWYQQKPGQAPRLLIYKVSNRFSGVPDRFSGSGSGTDFTLKISRVEAEDVGVYYCGQGTQVPYTFGQGTKLEIK
# Target: T1, CD3ε homodimer protein (human, UniProt P07766 23-126, limits assumed, sulfo-tag or biotin label in some ECL assays)
# T1 construct: also called human CD3ε homodimer protein; CD3 (CD3ε)
# Assay: SPR, CD3ε homodimer on chip;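 also: biacore SPR with antibody variants flowed as analyte over amine-coupled CD3ε homodimer on a CM chip, bound amount of each single-residue H chain variant over that of parent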
# T1 sequence (P07766 23-126 limits assumed): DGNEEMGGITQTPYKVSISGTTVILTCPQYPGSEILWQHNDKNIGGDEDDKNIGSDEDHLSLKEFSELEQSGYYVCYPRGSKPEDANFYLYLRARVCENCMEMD
row,ratio of amounts bound vs CE115HA000,Binder
1,0.66,B1
2,0.3,B2
3,0.48,B3
4,0.52,B4
5,0.22,B5
6,0.27,B6
7,0.66,B7
8,0.94,B8
9,0.45,B9
10,0.11,B10
11,0.55,B11
12,0.19,B12
13,0.35,B13
14,0.7,B14
15,9.9,B15
16,0.33,B16
17,0.26,B17
18,0.18,B18
19,0.11,B19
20,0.24,B20
